Legend:
[1] = target: tyrosine-phosphorylated Stat1tc, truncated Stat1 (132-713) (human) (UniProt P42224); assay: cell-based or functional assay
[2] = target: tyrosine-phosphorylated human Stat1α (human) (UniProt P42224); assay: cell-based or functional assay
[3] = target: nonphosphorylated human Stat1α (human) (UniProt P42224); assay: cell-based or functional assay
[4] = target: the molecule itself; assay: dimerization in solution, method not given
[5] = target: T1, Stat1tc (Stat1 132-713, Tyr701-phosphorylated, NEM-alkylated) (Homo sapiens, UniProt P42224 SEQ:1-582); assay: EMSA; dimer and two-dimer complexes both displaced in <1 min; no stabilisation (lacks residues 1-131); details: tags: none; E. coli; initiator Met absent; phosphorylated in vitro by EGF-receptor kinase; chain copies: 2 (stated, homodimer); label: 32P (Klenow fill-in); protruding 5'-TCC, filled in; two parallel sites
T1 chain: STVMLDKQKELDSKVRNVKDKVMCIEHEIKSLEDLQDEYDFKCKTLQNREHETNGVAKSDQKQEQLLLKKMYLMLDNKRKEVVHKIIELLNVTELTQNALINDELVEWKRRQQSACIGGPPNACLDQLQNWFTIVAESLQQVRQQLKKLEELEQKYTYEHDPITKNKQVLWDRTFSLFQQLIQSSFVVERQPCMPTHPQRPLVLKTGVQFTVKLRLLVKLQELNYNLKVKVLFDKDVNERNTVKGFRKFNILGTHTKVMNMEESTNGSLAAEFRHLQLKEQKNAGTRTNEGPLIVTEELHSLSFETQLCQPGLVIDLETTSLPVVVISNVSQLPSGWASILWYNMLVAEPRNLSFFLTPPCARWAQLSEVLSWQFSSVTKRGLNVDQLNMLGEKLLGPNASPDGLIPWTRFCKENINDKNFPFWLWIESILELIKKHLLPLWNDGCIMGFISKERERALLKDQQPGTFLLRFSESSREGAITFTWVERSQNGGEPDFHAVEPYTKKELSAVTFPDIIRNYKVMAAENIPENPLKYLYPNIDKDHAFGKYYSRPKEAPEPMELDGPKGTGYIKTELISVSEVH
Method: FIG. 6A. Comparison of the dissociation rates of complexes containing DNA fragments with two consecutive binding sites (2×osWT, 10 bp apart) and Stat1α (right) or Stat1tc (left). 0.5×10⁻⁹ M dimer was prebound with 0.7×10⁻⁹ M radiolabelled DNA for 5 min at room temperature (lanes 1 and 8). After the addition of a 100-fold molar excess of unlabelled DNA at time point zero the reaction was further incubated for the times indicated before aliquots were loaded on a running polyacrylamide gel. At time zero two differently migrating complexes are visible, denoted “(2×(Dimer))” and “Dimer”. Unbound (free) DNA runs at the bottom of the gel.
Dissociation rate determination. Under the reaction conditions described above, each oligonucleotide (at 2×10⁻⁹ M or otherwise stated) was mixed with 0.55×10⁻⁹ M dimer of purified phosphorylated Stat1 protein. The reaction volume was scaled up to 100 μl. The reaction was incubated for 5-15 min at room temperature and for time zero, an aliquot (10 μl) was removed and loaded directly onto a pre-run polyacrylamide gel (see above). […] Gels were dried, exposed to X-ray film and labelled protein/DNA complexes and unbound labelled DNA were quantitated as described above. The half life was determined from a semi-log plot of the numerical data (shifted radioactivity over shifted radioactivity at time zero versus time). […]

tyrosine-phosphorylated Stat1tc, truncated Stat1 (132-713) (from UniProt P42224 132-713)
displacement of dimeric and [2×(dimeric)] complexes on tandem DNA sites by excess unlabelled oligonucleotide [1]: < 1 min

tyrosine-phosphorylated human Stat1α (from UniProt P42224 1-750)
displacement of the [2×(dimeric)] complex on tandem DNA sites by excess unlabelled oligonucleotide [2]: > 30 min

EGF-receptor from human carcinoma A431 cells (from UniProt P00533 25-1210)
percentage of Stat protein that was phosphorylated [3]: < 75%

B1: amino terminal domain of Stat1 (amino terminal 131 amino acids) (other)
chain: MSQWYELQQLDSKFLEQVHQLYDDSFPMEIRQYLAQWLEKQDWEHAANDVSFATIRFHDLLSQLDDQYSRFSLENNFLLQHNIRKSKRNLQDNFQEDPIQMSMIIYSCLKEERKILENAQRFNQAQSGNIQ
notes: also called 16 kDa fragment; N-terminal fragment
binding result [4]: binds

B2: 2xcfosWT tandem, 10 bp spacing (dsDNA)
DNA 1: AGTCAGTTCCCGTCAATGCATCAGGTTCCCGTCAATGCAT
DNA 2: ATGCATTGACGGGAACCTGATGCATTGACGGGAACTGACT
binding result [5]: binds
